Patent publication US20250011453A1, “METHODS FOR TREATING CANCER USING A COMBINATION OF A PD-1 ANTAGONIST, AN ILT4 ANTAGONIST, AND CHEMOTHERAPEUTIC AGENTS” (Merck Sharp & Dohme LLC, priority 2021, published 2025)

Assay: Phase 1 open label, multi-arm, multi-center study of MK-4830 as monotherapy or in combination with pembrolizumab (NCT03564691): safety and tolerability
Format: in vivo, human

MK-4830: anti-ILT4 antibody; light chain SEQ ID NO:5, heavy chain SEQ ID NO:10 (Table 4)
Grade 3 drug-related AE (1600 mg dose level, MK-4830 monotherapy cohort): one episode of transient Grade 3 blood pressure increase | participants with one or more drug-related AEs (51 treated participants (monotherapy and pembrolizumab combination pooled), preliminary data, majority Grade 1): 51% | Grade 4 or 5 drug-related AEs or SAEs (all participants (51 treated), preliminary data): no Grade 4 or 5 drug-related AEs or SAEs | target dose limiting toxicity (DLT) rate (participants with advanced solid tumors, MK-4830 monotherapy up to 1600 mg and MK-4830 up to 800 mg plus pembrolizumab, May 10, 2019 data cutoff): not reached in any of the cohorts
